experiment: soluble on expression in E. coli; label from the status in PepcDB or PDB records

Sequence	soluble on expression in E. coli
MSLGTIIIVDDNKGVLTAVQLLLKNHFSKVITLSSPVSLSTVLREENPEVVLLDMNFTSGINNGNEGLFWLHEIKRQYRDLPVVLFTAYADIDLAVRGIKEGASDFVVKPWDNQKLLETLLNAASQAKDGKKKNRKKESSPVSAMYWGESSAMQQLRTLIEKVATTNANILITGENGTGKEMLAREIHALSPRSAESMISVDMGAITESLFESELFGHVKGSFTDAHADRTGKFEAADRSSLFLDEIGNLPFHLQAKLLTAIQQRSIVRVGSNQSIPVDIRLICATNRNLQEMVDKGLFREDLLYRINTIHVEIPPLRKRKEDIVPLAERFIARFCKQYDKASISLSPAACEKLTAHAWYGNIRELEHSIEKAVIISDGETIPAEMFQLVQKTENPETETSTLEDMEKAMIRKALDKCGGNLSAVAAQLGITRQTLYNKMKKFGLEGHHHHHH	soluble
MLNIDTQFVDTIGKILSDYVSHSEITRMGEVLGYPQNDQNSGFNKHKRVHNLVSDILNRTQNTDNIKLVIEYVCNPLRYINEVSIFEQLRTAINIPLSLKGLIVSDSGQIVTTTTSKTLSEAKKRFETLDSRLKELKVHPHVLKFCTQELLQENYFHAVFEASKGVFHRIRLLTGSAMDSASLIDQCFKPGEPIVIINGNKLQTLDEQSEYKGLKNLLLAIAHLYRNSKAHKLKYYNPDNLNDALTALTLMSLAHNLLDSCSNTRRLD	soluble
MSLKRYSGFLIDLDGTMYRGSEVITEAVAFVKQLEKQSASYLFVTNNSTKSPETVATLLKSMDVPATKEHVFTSSMAMASYLTRTKEFVRAFVIGEEGLLESLKESGMMVSEDEQPDYVVMGLDRAISYEKLAKAATYVRQGAKFFITNGDAALPTEKGLMPGNGSLAAVVATTTGVKPFVVGKPSPIIIEEALKRLGTTKEETLLIGDNYDTDILAGIHAGIDTLLVHTGVTTKEALKQKEAQPTYTCESLADWQRSIEEEGHHHHHH	soluble
MVHPALEFSDCYSDSPDFRERLKCYENELEKTNKFLKDVIKDGNNVINTFKEYSLAVQKFSQTLQSFQFDFIGDTLTDDEMNIAESFREFAGLLQDVEEARMMLVQNASDLLIKPLEKFRKEQIGVTKERRKKFEKESEKYYSQLDKHVNLSSKKKETQLQEADEQLDKERQAFYESSVEYVYQIQQVQEKKKFDVVEPVLAFLQSILTLNNLTVEMYTFRNKGTKCNTGEIPFQKVQFCTIQVDISTFMVHFCTFKLYFCTFKIP	not soluble
MNKELQPKVVFLMGPTASGKTALALELAEKHNCEIISVDSALIYRGMDIGSAKPSAEELARGPHRLIDIRDPSESYSAADFRADALSEIEQIISMGKTPLLVGGTMMYFKALLEGLSPLPSADEVIRADIQAEADANGWEALHDQLREIDPVSAERIHPNDPQRLSRALEVYRISGKSLTELTMTKSAPLPYNVVQFAIAPRERKVLHELIGQRFRIMLEQGFIDEVAQLKARDDLHLDLPSMRCVGYRQCWQYLDGEFDHDTMVEKAIAATRQLAKRQLTWLRSWPELNWLESGAEGNLVTLMRHCRLEHHHHHH	soluble
MLAAGEGKRMGACKPLLPLGASTVLAHVAKTLLPAINGPLVVVTGHHGDAVTAEALRLSLETAENTTPQDGMFSSVRTGIAHIVGRVDGVLVLPADIPFVRTATCALVVEAFRRHRAAVTYPTLCGERGHPPLLDADTMRAVLASSGDGGLRGVLLALERQGGTTHDVAVADEGIVTDMDTPADHAQLVARHPLRHIPTPREREALLEMAGTPARVRAHCRMVARAALAMAAHLEATRRGFISPFARQSAPHGISTSGAHAEPRSVPASTTTHAVHAEGNTTLPHTATAHVACPPPDVTTGPMPTCQPGHMPDHMPGTARDAAQQAPAATASPQRLDRPLIHAAATLHDICKGTQRHEAAGGALLTRHGFPEVGSIIAAHRDIAPQAGPEIDEAALVMLADKYVRGVSLIPVEERFDERLREWAHRPDVACDIAARKARVLMVRDLFESETATELFPLLQRKVRRGTFLEHHHHHH	not soluble
MQRGIVWVVDDDSSIRWVLERALAGAGLTCTTFENGNEVLAALASKTPDVLLSDIRMPGMDGLALLKQIKQRHPMLPVIIMTAHSDLDAAVSAYQQGAFDYLPKPFDIDEAVALVERAISHYQE	soluble
MDALELLINRRSASRLAEPAPTGEQLQNILRAGMRAPDHKSMQPWHFFVIEGEGRERFSAVLEQGAIAAGSDDKAIDKARNAPFRAPLIITVVAKCEENHKVPRWEQEMSAGCAVMAMQMAAVAQGFGGIWRSGALTESPVVREAFGCREQDKIVGFLYLGTPQLKASTSINVPDPTPFVTYFHH	soluble
AIAKETEQVSEAPHGLEGAWLDLTNRVRVSGDTVEACSAFSIGPPRCRWLLQATDRGVNCAALDHYVPHICGTHTETVYHIAHHRYIKRAVCEIPFFRFHKARIQVCTAKIACTEQVLPSADTDYPCLEPNDLIVGPSALNRAPRYTRAQDSTIEALILIVVGPDGTSDWRDGKLDDRPPYLTPAAIESLATRYPNMRHLLTNLPSVDRRRDGGLVRSHRAFFATDFAGDGTPSESPQKTITELLRVPPDWQLYDDAEGVVCISLAPIEGLDAIPSSVYFKSH	soluble
MAHHHHHHMLQNMSNILDRTCWSCFFFFLKRKYSYMRRGTSTYPTTGCPLKKHEGGSHCPRARNWTASAGDIVGNGRRAEVGLARLKS	not soluble
AKVNIKPLEDKILVQANEAETTTASGLVIPDTAKEKPQEGTVVAVGPGRWDEDGEKRIPLDVAEGDTVIYSKYGGTEIKYNGEEYLILSARDVLAVVSK	soluble
MKRCLDKGKTMDALKHALQMLNEMRTAELSPKFYYRLYMDSMHELQCLEVNLVQEYAQEPAKLGNLYECVQYASAIIPRLYLLVTIGGVFIKCGLGSRKEILKDLVEMCRGVQHPLRGLFLRNYLMQCTRSVLPDFPETEEMLVAHNDNLSKGTPKLKPRDGTVDDTIDFVLINFAEMNKLWVRMQHQGPSKEKEKREKDRMELRILVGTNLVRLAQLEALTEEMYVKDVLPSILEQIVSCRDPISQEYLMECVIQVFADDFHLATLTEFLNACGQLQQDVNIKILLIALVDRLALYTTSYNEGQPAPTKMQLFEIFSEQATTLIKNRPDMPLDDIVALHVSLVSLAVKCYPDRQDYANMTFQGLRQVIEEKGVTDIEAFGKVGRELTKLLNIPIDEYKNVLRLSQLPEYIKVMNYFDYRGQCNIASYMIQNMLEEETVFRNQDDVDSAFSLISSLLKDQEKQSSDSHETEEFADEQNLVARLLHLIRADDVDSQFLLLNSARKTLGEGGRHRLRYTLPPIIFELYRLVLQFSDMKDEDDKWDAKIRKMFVCAMGTIGALVSTAELAELPMKLYLNGAITADRVPFEDNHTVVYEFVSKALSILEDDVVDSRDRVRCLHLTVGTLLKTTHLPEENWQPLANQTVLAAAKMFKKPDQVRSLVTVAALYWHGQTLETNGEKMKNGKKVVDILRKAAKIARECLEPLVQQQLFIQLLSAYTYYYEDNCSEVNVDHIEELIARTQDNAVQLDVSAEADSLEKQLGEAIRRLQLAKLDVAAAQATTIRSEPELPQPPS	soluble
MFSRPGLPVEYLQVPSASMGRDIKVQFQGGGPHAVYLLDGLRAQDDYNGWDINTPAFEEYYQSGLSVIMPVGGQSSFYTDWYQPSQSNGQNYTYKWETFLTREMPAWLQANKGVSPTGNAAVGLSMSGGSALILAAYYPQQFPYAASLSGFLNPSEGWWPTLIGLAMNDSGGYNANSMWGPSSDPAWKRNDPMVQIPRLVANNTRIWVYCGNGTPSDLGGDNIPAKFLEGLTLRTNQTFRDTYAADGGRNGVFNFPPNGTHSWPYWNEQLVAMKADIQHVLNGATPPAAPAAPAALEHHHHHH	soluble
MKKGVLIAFEGIDGSGKSSQATLLKDWIELKRDVYLTEWNSSDWIHDIIKEAKKKDLLTPLTFSLIHATDFSDRYERYILPMLKSGFIVISDRYIYTAYARDSVRGVDIDWVKKLYSFAIKPDITFYIRVSPDIALERIKKSKRKIKPQEAGADIFPGLSPEEGFLKYQGLITEVYDKLVKDENFIVIDGTKTPKEIQIQIRKFVGELIDNSF	soluble
GIVPYGGNLTVLDLVQKYIGQKKGVRHNTQANYDFVINIIKKEEFGTRRIDKIKLSDAKAWFIKLQADGRGYSSIHSVRGIVRPAFQMAVEDDLLRKNPFEFQLCTVVVNDSVTRQAITKEQEELFLEFIRNDDHYSKYYNGMFILFKTGLRISEFCGLTVKDIDLQERKINVNHQLQRTRGMQYVIEDTKTSSGTRMLPMTDEVYECFEQIVKNRKKVRVEPIVDGYSRFLFLDKKDMPEVALHWEKHFQWALGKYNRTHEEQMPKITPHVCRHTYCSNMAKAGMNPKALQYLMGHSDIGVTLNVYTHLGLIDAKEEMNRIAKLA	not soluble
MKFCYNVVTYCTKRKNNLQEYSIEITLQHPDDMMSLFGSNERHLKLIEENLDVIIHARTERVQVLGDSEEAVETARLTIEALLVLVNRGMTVNTSDVVTALSMAQNGSIDKFVALYEEEIIKDSYGKPIRVKTLGQKIYVDSVKNHDVVFGIGPAGTGKTFLAVTLAVTALKRGQVKRIILTRPAVEAGESLGFLPGDLKEKVDPYLRPVYDALYQILGKEQTSRLMEREIIEIAPLAYMRGRTLDDAFVILDEAQNTTIMQMKMFLTRLGFNSKMIVNGDVSQIDLPKNVKSGLIDAVEKLRNIKKIDFIHLSAKDVVRHPVVAEIINAYSDSESSHKLQSDKD	not soluble
SLSFASETKKELTNLEVKDCCINAELSALIRMNGALSFTNRHLVLDVQTENAAIARRIYTLLKKQYDVSVELLVRKKMRLKKNNVYIVRFSENAKAILEDLKILGENFVFERSISKELVKKRCCKRSYMRGAFLAGGSVNNPETSSYHLEIFSLYKEHNDSLCDLLNEFQLNSKTLERKKGYITYLKEAEKITEFLNVIGAHNSLLRFEDVRIVRDMRNSVNRLVNCETANLNKTIGASLRQVENIKYIDERIGLEALPEKLREIAQLRIDYQEVTLKELGEMVASGKISKSGINHRLRKLDEIAEQLRTGQTVTLK	soluble
MGHHHHHHSHCSSCSTPLYDQGGPVEILPFLYLGSAYHASRKDMLDALGITALINVSANCPNHFEGHYQYKSIPVEDNHKADISSWFNEAIDFIDSIKNAGGRVFVHCQAGISRSATICLAYLMRTNRVKLDEAFEFVKQRRSIISPNFSFMGQLLQFESQVLAPHCSAEAGSPAMAVLDRGTSTTTVFNFPVSIPVHSTNSALSYLQSPITTSPSC	not soluble
MAHHHHHHMSTHIERLQSEDEVAFKLKGEIAAIEKEIKSWFIKRRLNMELNYSLHNLFTNYNIVGLSINKKIDLKEKMLWHDIVNGKPTLEDTLSLDAKEYKADVYRKMWENSTTTDNPCRLVGSIFFRCLKGNYQLTEQEREGTCMHSFLNFTHCRKALKLQQANNIRTALTKQSAEDTQAKALFERRSALLGKLTGSAP	not soluble
MDSALFKTIALIGKHKNPDIVIPLLSLAEYLTDRGISVVLDSLTAAHISNSRYPILTLEEIGKQADLAIVLGGDGTMLNIARALVPFSVPLIGINQGRLGFLTDLTADTMHETLNDMLAGQFVVENRMLLTVEVTRNGESVFKELAFNDVVLHRGISSGMIELEVHINGEYVYSLRSDGLIIATPTGSTAYALSSGGPILHPGLNLMTLVPICPHTLSNRPIVIGADATIEIKVHFTTEIKIYTDSHSWFDLSEHDRVFIQRCPETIKLLHPVHHSYYRMLREKLGWSGILQKNSRLEHHHHHH	not soluble
MTIAQQERPVAASPYRFEAEMTSGLERVAAHHHDLTLTSVFQPIFSLSHMRAVGYEALLRAHDALDRPVSPLDVFGEAARHGEAAQVDRLAQALHLENFARFGAEREWLFLNVHPGVLTDPFQAAALFANLKRLEIPPRRIVLEVLEQRADDIERLADAVREFREQGFLIALDDFGAGHSNIERIWQLNPDIVKLDRIMLSHAQHRAGLTAILHGLVTLLHEAGKLVLIEGIETEHEAQIALACDADFVQGHFFGRP	not soluble
AHHHHHHGSTHIFPEINSISSLLLLYNGRVLANIHDRTIKKVIGFEAIFRDRVIRNDIKMLIELIRKGDEPLEIRGITIEDYAMNLIKGMMKFARPEE	not soluble

From the DeepSol protein solubility set
